The values that follow come from paper PMC4449531, “Identification and characterization of a novel group of legume-specific, Golgi apparatus-localized WRKY and Exo70 proteins from soybean”.

Numbering of substitutions follows the chain as printed.

In data set [1] the target is T1, GmWRP1 (Glycine max, UniProt I1MBG9 1-332).
T1 sequence: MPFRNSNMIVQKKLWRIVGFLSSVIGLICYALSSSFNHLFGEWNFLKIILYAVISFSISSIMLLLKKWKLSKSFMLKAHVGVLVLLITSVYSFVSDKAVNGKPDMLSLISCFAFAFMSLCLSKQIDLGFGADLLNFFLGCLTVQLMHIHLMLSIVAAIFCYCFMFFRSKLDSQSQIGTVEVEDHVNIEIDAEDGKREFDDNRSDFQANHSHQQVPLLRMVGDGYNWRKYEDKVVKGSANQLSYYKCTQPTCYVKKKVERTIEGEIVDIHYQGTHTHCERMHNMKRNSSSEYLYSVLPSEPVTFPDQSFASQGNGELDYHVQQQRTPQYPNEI
Nature of the data set: EMSA; not stated; EMSA as in Zheng et al., 2006. As to conditions: protein: recombinant; tags: His (pET32a); label: labelled by Klenow fill-in. (A gel shift assay detects complexes by their altered migration in electrophoresis.)

Data set [2] deals with AtWRKY33 (Arabidopsis, UniProt Q8S8P5 1-519). Nature of the data set: EMSA; not stated; EMSA as in Zheng et al., 2006. Conditions: protein: recombinant; tags: His (pET32a); label: labelled by Klenow fill-in.
Chain of AtWRKY33 (Q8S8P5 whole entry): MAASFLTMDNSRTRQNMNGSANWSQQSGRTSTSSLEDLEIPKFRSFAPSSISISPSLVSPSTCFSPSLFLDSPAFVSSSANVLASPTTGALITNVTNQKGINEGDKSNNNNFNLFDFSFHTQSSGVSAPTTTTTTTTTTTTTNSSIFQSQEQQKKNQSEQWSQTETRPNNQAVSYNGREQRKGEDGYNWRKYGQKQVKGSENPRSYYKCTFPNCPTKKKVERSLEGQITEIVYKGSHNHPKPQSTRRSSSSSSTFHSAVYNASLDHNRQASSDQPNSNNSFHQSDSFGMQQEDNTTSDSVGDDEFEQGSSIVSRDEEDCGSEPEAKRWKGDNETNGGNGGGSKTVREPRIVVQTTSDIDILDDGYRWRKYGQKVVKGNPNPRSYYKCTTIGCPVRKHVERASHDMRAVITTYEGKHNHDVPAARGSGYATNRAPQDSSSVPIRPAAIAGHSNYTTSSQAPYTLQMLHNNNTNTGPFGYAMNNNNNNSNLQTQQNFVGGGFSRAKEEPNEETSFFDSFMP

B1: Pchn0 (dsDNA)
DNA 1: GGAACTTGACCTTGACCTTAGGGCTGCAGGAATTCG
DNA 2: CGAATTCCTGCAGCCCTAAGGTCAAGGTCAAGTTCC
B1: the binding result in data set [1] was “no binding”; in data set [2] it was “binds”.

B2: mPchn0 (dsDNA)
DNA 1: B1 DNA 1 with C10A, C16A
DNA 2: B1 DNA 2 with G21T, G27T
Turning to B2, the binding result in data set [1] and in data set [2] was “no binding” in each case.
